According to patent US20220298257A1:

Key:
[1] = target: full-length human CD22 fused with flag and Myc tags at the C-terminus, on HEK293 or K562 cells (human) (UniProt P20273); assay: FACS on CD22-expressing cells (HEK293-CD22 by the table's head), anti-hFc Alexa 488
[2] = target: full-length human CD22 fused with flag and Myc tags at the C-terminus, on HEK293 or K562 cells (human) (UniProt P20273); assay: ELISA, IgG format; antigen format not described
[3] = target: full-length human CD22 fused with flag and Myc tags at the C-terminus, on HEK293 or K562 cells (human) (UniProt P20273); assay: cell-based or functional assay

Chain of full-length human CD22 fused with flag and Myc tags at the C-terminus, on HEK293 or K562 cells (human) (P20273 20-847): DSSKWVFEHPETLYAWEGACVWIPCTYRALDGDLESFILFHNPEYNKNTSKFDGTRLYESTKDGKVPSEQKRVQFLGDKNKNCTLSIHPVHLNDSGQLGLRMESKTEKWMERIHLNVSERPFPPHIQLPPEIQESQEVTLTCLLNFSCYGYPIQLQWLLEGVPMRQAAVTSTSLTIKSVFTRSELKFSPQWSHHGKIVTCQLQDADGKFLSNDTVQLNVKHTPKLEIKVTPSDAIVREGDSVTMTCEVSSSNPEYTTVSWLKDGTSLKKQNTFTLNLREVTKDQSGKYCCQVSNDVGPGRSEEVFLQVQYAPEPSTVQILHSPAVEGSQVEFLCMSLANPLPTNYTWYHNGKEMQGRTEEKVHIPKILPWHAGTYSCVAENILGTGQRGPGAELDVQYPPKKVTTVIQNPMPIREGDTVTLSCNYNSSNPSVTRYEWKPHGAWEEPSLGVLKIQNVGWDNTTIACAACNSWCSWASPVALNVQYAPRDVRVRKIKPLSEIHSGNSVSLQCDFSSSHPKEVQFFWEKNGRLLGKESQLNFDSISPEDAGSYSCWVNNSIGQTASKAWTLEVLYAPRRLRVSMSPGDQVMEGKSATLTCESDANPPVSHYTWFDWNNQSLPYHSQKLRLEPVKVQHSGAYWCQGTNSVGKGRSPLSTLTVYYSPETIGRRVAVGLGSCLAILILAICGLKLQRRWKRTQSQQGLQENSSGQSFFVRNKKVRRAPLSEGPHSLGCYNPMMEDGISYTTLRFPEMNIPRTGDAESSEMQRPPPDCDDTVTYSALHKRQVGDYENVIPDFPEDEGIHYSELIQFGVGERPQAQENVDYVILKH

BL22 (anti-CD22) (antibody) showed an EC50 [1] of 0.044 nM, an EC50 [2] of 0.004 nM and an EC50 in ADCC assay (Promega ADCC Bioreporter, CD22/HEK293 target cells) [3] of 3.31 nM. It also gave a T½ (Hour) of internalization, CD22/HEK293 cells, pHrodo secondary [3] of 3.95 Hour.
